Measurements: patent US9624285B2, “Methods of treating diabetes and compositions capable of same” (Ramot a Tel-Aviv University Ltd., priority 2010, dated 2017)
No end group written: not given here.

B1: hIAPP oligomers: isolated stable oligomers (dimers, trimers, ~90 kDa) of synthetic human islet amyloid polypeptide prepared with HFIP, NaOH and SDS (peptide)
peptide: MGILKLQVFLIVLSVALNHLKATPIESHQVEKRKCNTATCATQRLANFLVHSSNNFGAILSSTNVGSNTYGKRNAVEVLKREPLNYLPL

Legend:
[1] = system: Rin-m cells; experiment: Confocal microscopy of cells incubated with labelled oligomers; type: cell-based; conditions: 5 μM
Protocol: Rin-m cells were cultured on glass cover slips located in 24-well micro plates, then incubated for different periods with hIAPP-Hiytelfluor 488 (Anaspec, USA) oligomers (5 μM) at 37° C., as described in the cell cytotoxicity experiments section. After incubation cells were washed with PBS buffer and fixed with 4% paraformaldehyde in PBS for 5 minutes and washed with PBS buffer. Cells were treated with 1% Triton x-100 in PBS and stained with 50 μg/ml Phalloidin Tetramethyl-rhodamine B isothiocyanate (Sigma-Aldrich) in PBS 40 minutes in room temperature, followed by extensive wash with PBS buffer. The cells were imaged using LSM 510 confocal laser scanning microscope (Carl Zeiss Jena, Germany).

[2] = system: Rin-m cells; experiment: MTT reduction assay; type: cell-based
Protocol: Rin-m cells (2×10^5 cells/ml) were cultured in 96-well micro plates (100 μl/well) and incubated overnight at 37° C. Human oligomers and rat IAPP was added to each well at various concentrations. Each measurement was repeated four times. Following incubation for 6 hours at 37° C., cell viability was evaluated using 3-(4,5-dimethylthiazolyl-2)-2,5-diphenyltetrazolium bromide (MTT) assay. Briefly, 20 μL of 5 mg/ml MTT dissolved in PBS was added to each well. After 4 hours incubation at 37° C., 100 μl of extraction buffer [20% SDS dissolved in a solution of 50% dimethylformamide and 50% DDW (pH 4.7)] was added to each well, and the plates were incubated again overnight at 37° C. Finally, color intensity was measured using an ELISA plate reader at 570 nm.

[3] = system: Rin-m cells; experiment: Flow cytometry cell sorting (FACS) assay, Annexin V-FITC apoptosis detection; type: cell-based; conditions: 0.5 μM, 1 μM and 5 μM
Protocol: Rin-m cells (5×10^5 cells/ml) were cultured for 4 hours at 37° C. incubated with human IAPP oligomers (final concentration of 0.5 μM, 1 μM and 5 μM). Samples were washed with PBS buffer and resuspended with 500 μl binding buffer. 5 μl of Annexin V-FITC and 10 μl of propidium iodide (Annexin V-FITC apoptosis detection kit; MBL) was added to the samples. After 10 minutes of incubation in the dark at RT, samples were analyzed using the FACS Sort (Beckton Dickinson) and results analyzed using the CellQuest program (Beckton Dickinson). Each measurement was repeated three times. FL1-H represents the fluorescence of V-FITC and FL2-H represents the fluorescence of […].

[4] = Oligomer stability assay (PAGE under non reducing conditions); type: physicochemical; conditions: dialyzed against PBS buffer, incubated at 37° C.
Protocol: FIGS. 1A-E are graphs and photographs illustrating characterization of human IAPP oligomers. (FIG. 1A) PAGE analysis under non-reducing conditions of human IAPP oligomers and a negative control of non amyloidogenic rat IAPP (I-monomer, II-dimer and III-trimer). (FIG. 1B) Oligomer stability assay, hIAPP oligomers were dialyzed against PBS buffer and incubated at 37° C. Oligomer association/disassociation was monitored by PAGE analysis under non reducing conditions. (FIG. 1C) Size exclusion chromatography (Superdex 75 10/300, PBS buffer pH 7.4) of hIAPP oligomers; I-monomer, […], III-trimer and IV-90 kDa oligomer. (FIG. 1D) Transmittance electron microscopy (TEM) and atomic force microscopy (AFM) images of the ˜90 kDa oligomers, TEM scale bar 100 nm, AFM scale bar 600 nm. (FIG. 1E) CD spectroscopy of hIAPP and rIAPP, protein concentration of 5 μM. Each spectrum represents the average of three measurements.
IAPP synthetic peptide (Human; H-7905, Bachem, Bubendorf, Switzerland. Rat; 74-5-10A, American peptide, California, U.S.A) was suspended in 100% 1,1,1,3,3,3 hexafluoro-2-propanol (HFIP) at 1 mg/ml and incubated for complete solubilization under shaking (100 rpm) at 37° C. for 2 hours. […] IAPP self-assembly products were analyzed by 15% Tris-tricine PAGE and stained with Imperial protein stain. […]

[5] = pancreatic RIN-m cells, 100 nM-10 μM, 6 hours

Row | Molecule | cell morphology (confocal) ([1]; after eight hours) | cell numbers (confocal) ([1]; after four hours, insertion of oligomers to the cytoplasm) | interaction of oligomers with cells (confocal) ([1]; after one hour) | cell viability (MTT reduction) [2, 5] | correlation of oligomer concentration with percentage of apoptotic cells [3] | cell state (apoptosis) by FACS ([3]; 4 hours) | oligomer stability (no disassembly or further polymerization to fibrils) [4] | oligomer stability (no disassembly or further polymerization to fibrils) ([4]; listed as oligomeric structures) | cell viability (MTT reduction) ([2]; pancreatic cells, 5 μM oligomers)
1 | hIAPP-Hiytelfluor 488 oligomers: oligomers of fluorescently labelled hIAPP-Hiytelfluor 488 (Anaspec) (KCNTATCATQRLANFLVHSSNNFGAILSSTNVGSNTY; not fully specified (C-terminus, bridges); cysteine pairing not given here; also: HiLyte Fluor 488 label, position not given here, oligomers; UniProt P10997 34-70, looked up) | Dramatic cell morphology changes | massive decline in cell numbers | intensive localization of the oligomers to the cell membrane | – | – | – | – | – | –
2 | rIAPP: non amyloidogenic rat IAPP synthetic peptide, negative control, treated in the same manner [reference compound] | – | – | – | showed no such effect | – | – | – | – | –
3 | B1 | – | – | – | dose dependent decrease in cell viability | clear and strong correlation | mostly in the early and late apoptotic phase | up to 7 days | stable for up to seven days | reduced dramatically
